T1: hu-MCSP(D3 domain)-avi-his (human, UniProt Q6UVK1 1582-2224)
T1 construct: Recombinant D3 domain with avi and his tags; also called human MCSP(D3 domain)-avi-his; Human MCSP D3
T1 sequence: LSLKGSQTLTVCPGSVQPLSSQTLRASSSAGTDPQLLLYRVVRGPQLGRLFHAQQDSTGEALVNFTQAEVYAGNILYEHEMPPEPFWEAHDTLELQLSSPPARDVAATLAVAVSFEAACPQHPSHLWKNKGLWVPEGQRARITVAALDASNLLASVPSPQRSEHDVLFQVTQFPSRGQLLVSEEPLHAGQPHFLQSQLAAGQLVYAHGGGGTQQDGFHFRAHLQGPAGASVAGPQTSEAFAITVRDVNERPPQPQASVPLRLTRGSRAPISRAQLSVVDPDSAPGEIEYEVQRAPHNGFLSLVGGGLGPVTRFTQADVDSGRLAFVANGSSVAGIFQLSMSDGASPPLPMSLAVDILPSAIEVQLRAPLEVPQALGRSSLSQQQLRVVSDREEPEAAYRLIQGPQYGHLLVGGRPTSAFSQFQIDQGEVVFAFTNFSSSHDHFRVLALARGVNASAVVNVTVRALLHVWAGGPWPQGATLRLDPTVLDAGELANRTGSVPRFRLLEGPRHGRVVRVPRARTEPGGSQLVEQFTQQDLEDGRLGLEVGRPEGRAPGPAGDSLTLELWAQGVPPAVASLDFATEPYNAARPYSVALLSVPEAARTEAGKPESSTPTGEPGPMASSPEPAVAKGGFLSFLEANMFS

B1: 2 + 1 IgG Crossfab; CL/CH1 exchange (M4-3 ML2/V9) (anti-MCSP/anti-huCD3) (bispecific antibody)
chain 1: DIQMTQSPSSLSASVGDRVTITCRASQDIRNYLNWYQQKPGKAPKLLIYYTSRLESGVPSRFSGSGSGTDYTLTISSLQPEDFATYYCQQGNTLPWTFGQGTKVEIKSSASTKGPSVFPLAPSSKSTSGGTAALGCLVKDYFPEPVTVSWNSGALTSGVHTFPAVLQSSGLYSLSSVVTVPSSSLGTQTYICNVNHKPSNTKVDKKVEPKSC
chain 2: not shown
chain 3: QVQLQESGPGLVKPSQTLSLTCTVSGGSITSGYYWNWIRQHPGKGLEWIGYITYDGSNNYNPSLKSRVTISRDTSKNQFSLKLSSVTAADTAVYYCADFDYWGQGTLVTVSSASTKGPSVFPLAPSSKSTSGGTAALGCLVKDYFPEPVTVSWNSGALTSGVHTFPAVLQSSGLYSLSSVVTVPSSSLGTQTYICNVNHKPSNTKVDKKVEPKSCDKTHTCPPCPAPEAAGGPSVFLFPPKPKDTLMISRTPEVTCVVVDVSHEDPEVKFNWYVDGVEVHNAKTKPREEQYNSTYRVVSVLTVLHQDWLNGKEYKCKVSNKALGAPIEKTISKAKGQPREPQVCTLPPSRDELTKNQVSLSCAVKGFYPSDIAVEWESNGQPENNYKTTPPVLDSDGSFFLVSKLTVDKSRWQQGNVFSCSVMHEALHNHYTQKSLSLSPGK
chain 4: not shown
B2: 2 + 1 IgG Crossfab; VL/VH exchange (M4-3 ML2/V9) (anti-MCSP/anti-huCD3) (bispecific antibody)
chain 1: EVQLVESGGGLVQPGGSLRLSCAASGYSFTGYTMNWVRQAPGKGLEWVALINPYKGVSTYNQKFKDRFTISVDKSKNTAYLQMNSLRAEDTAVYYCARSGYYGDSDWYFDVWGQGTLVTVSSASVAAPSVFIFPPSDEQLKSGTASVVCLLNNFYPREAKVQWKVDNALQSGNSQESVTEQDSKDSTYSLSSTLTLSKADYEKHKVYACEVTHQGLSSPVTKSFNRGEC
chain 2: not shown
chain 3: not shown
chain 4: QVQLQESGPGLVKPSQTLSLTCTVSGGSITSGYYWNWIRQHPGKGLEWIGYITYDGSNNYNPSLKSRVTISRDTSKNQFSLKLSSVTAADTAVYYCADFDYWGQGTLVTVSSASTKGPSVFPLAPSSKSTSGGTAALGCLVKDYFPEPVTVSWNSGALTSGVHTFPAVLQSSGLYSLSSVVTVPSSSLGTQTYICNVNHKPSNTKVDKKVEPKSCDKTHTCPPCPAPEAAGGPSVFLFPPKPKDTLMISRTPEVTCVVVDVSHEDPEVKFNWYVDGVEVHNAKTKPREEQYNSTYRVVSVLTVLHQDWLNGKEYKCKVSNKALGAPIEKTISKAKGQPREPQVCTLPPSRDELTKNQVSLSCAVKGFYPSDIAVEWESNGQPENNYKTTPPVLDSDGSFFLVSKLTVDKSRWQQGNVFSCSVMHEALHNHYTQKSLSLSPGK
B3: Parental M4-3/ML2 Fab (Fab, V domains shown)
VH: QVQLQESGPGLVKPSQTLSLTCTVSGGSITSGYYWNWIRQHPGKGLEWIGYITYDGSNNYNPSLKSRVTISRDTSKNQFSLKLSSVTAADTAVYYCADFDYWGQGTLVTVSS
VL: DIQMTQSPSSLSASVGDRVTITCRASQGIRNYLNWYQQKPGKAPKLLIYYTSSLHSGVPSRFSGSGSGTDFTLTISSLQPEDFATYYCQQYSKLPWTFGQGTKVEIK
notes: Soluble Fab with Flag tag, bacterial supernatant or purified; also called non-matured parental clone
B4: M4-3/ML2(C5) Fab (Fab, V domains shown)
VH: QVQLQESGPGLVKPSQTLSLTCTVSGGSITSGYYWNWIRQHPGKGLEWIGYITYDGSNNYNPSLKSRVTISRDTSKNQFSLKLSSVTAADTAVYYCADFDYWGQGTLVTVSS
VL: DIQMTQSPSSLSASVGDRVTITCRASRGIREYLNWYQQKPGKAPKLLIYYTGSLHSGVPSRFSGSGSGTDFTLTISSLQPEDFATYYCQQYSELPWTFGQGTKVEIK
notes: Soluble Fab with Flag tag
B5: M4-3(D6)/ML2 Fab (Fab, V domains shown)
VH: QVQLQESGPGLVKPSQTLSLTCTVSGGSITSGYYWNWIRQHPGKGLEWIGYITFDGKNNYNPSLKSRVTISRDTSKNQFSLKLSSVTAADTAVYYCADFDYWGQGTLVTVSS
VL: DIQMTQSPSSLSASVGDRVTITCRASQGIRNYLNWYQQKPGKAPKLLIYYTSSLHSGVPSRFSGSGSGTDFTLTISSLQPEDFATYYCQQYSKLPWTFGQGTKVEIK
notes: Soluble Fab with Flag tag
B6: M4-3(C1)/ML2 Fab (Fab, V domains shown)
VH: QVQLQESGPGLVKPSQTLSLTCTVSGGSITSGYYWNWIRQHPGKGLEWIGYITFDGSNNYNPSLKSRVTISRDTSKNQFSLKLSSVTAADTAVYYCADFDYWGQGTLVTVSS
VL: DIQMTQSPSSLSASVGDRVTITCRASQGIRNYLNWYQQKPGKAPKLLIYYTSSLHSGVPSRFSGSGSGTDFTLTISSLQPEDFATYYCQQYSKLPWTFGQGTKVEIK
notes: Soluble Fab with Flag tag
B7: M4-3/ML2(E10) Fab (Fab, V domains shown)
VH: QVQLQESGPGLVKPSQTLSLTCTVSGGSITSGYYWNWIRQHPGKGLEWIGYITYDGSNNYNPSLKSRVTISRDTSKNQFSLKLSSVTAADTAVYYCADFDYWGQGTLVTVSS
VL: DIQMTQSPSSLSASVGDRVTITCRASYGIRGYLNWYQQKPGKAPKLLIYYTSSLHSGVPSRFSGSGSGTDFTLTISSLQPEDFATYHCQQYSKLPWTFGQGTKVEIK
notes: Soluble Fab with Flag tag
B8: M4-3/ML2(G3) Fab (Fab, V domains shown)
VH: QVQLQESGPGLVKPSQTLSLTCTVSGGSITSGYYWNWIRQHPGKGLEWIGYITYDGSNNYNPSLKSRVTISRDTSKNQFSLKLSSVTAADTAVYYCADFDYWGQGTLVTVSS
VL: DIQMTQSPSSLSASVGDRVTITCRASQGIRNYLNWYQQKPGKAPKLLIYYTSSLHSGVPSRFSGSGSGTDYTLTISSLQPEDFATYYCQQYSALPWTFGQGTKVEIK
notes: Soluble Fab with Flag tag
B9: M4-3(B8)/ML2 Fab (Fab, V domains shown)
VH: QVQLQESGPGLVKPSQTLSLTCTVSGGSITSGYYWNWIRQHPGKGLEWIGYITFDGRNNYNPSLKSRVTISRDTSKNQFSLKLSSVTAADTAVYYCADFDYWGQGTLVTVSS
VL: DIQMTQSPSSLSASVGDRVTITCRASQGIRNYLNWYQQKPGKAPKLLIYYTSSLHSGVPSRFSGSGSGTDFTLTISSLQPEDFATYYCQQYSKLPWTFGQGTKVEIK
notes: Soluble Fab with Flag tag
B10: M4-3(A7)/ML2 Fab (Fab, V domains shown)
VH: QVQLQESGPGLVKPSQTLSLTCTVSGGSITDGYYWNWIRQHPGKGLEWIGYITFDGRNNYNPSLKSRVTISRDTSKNQFSLKLSSVTAADTAVYYCADFDYWGQGTLVTVSS
VL: DIQMTQSPSSLSASVGDRVTITCRASQGIRNYLNWYQQKPGKAPKLLIYYTSSLHSGVPSRFSGSGSGTDFTLTISSLQPEDFATYYCQQYSKLPWTFGQGTKVEIK
notes: Soluble Fab with Flag tag

What follows are binders tested against human MCSP expressed on tumor cells (Colo-38, WM266-4, A375, MV-3, HCT-116) (human, UniProt Q6UVK1 30-2322) (assay: cell-based or functional assay).
human MCSP expressed on tumor cells (Colo-38, WM266-4, A375, MV-3, HCT-116), sequence (Q6UVK1 30-2322): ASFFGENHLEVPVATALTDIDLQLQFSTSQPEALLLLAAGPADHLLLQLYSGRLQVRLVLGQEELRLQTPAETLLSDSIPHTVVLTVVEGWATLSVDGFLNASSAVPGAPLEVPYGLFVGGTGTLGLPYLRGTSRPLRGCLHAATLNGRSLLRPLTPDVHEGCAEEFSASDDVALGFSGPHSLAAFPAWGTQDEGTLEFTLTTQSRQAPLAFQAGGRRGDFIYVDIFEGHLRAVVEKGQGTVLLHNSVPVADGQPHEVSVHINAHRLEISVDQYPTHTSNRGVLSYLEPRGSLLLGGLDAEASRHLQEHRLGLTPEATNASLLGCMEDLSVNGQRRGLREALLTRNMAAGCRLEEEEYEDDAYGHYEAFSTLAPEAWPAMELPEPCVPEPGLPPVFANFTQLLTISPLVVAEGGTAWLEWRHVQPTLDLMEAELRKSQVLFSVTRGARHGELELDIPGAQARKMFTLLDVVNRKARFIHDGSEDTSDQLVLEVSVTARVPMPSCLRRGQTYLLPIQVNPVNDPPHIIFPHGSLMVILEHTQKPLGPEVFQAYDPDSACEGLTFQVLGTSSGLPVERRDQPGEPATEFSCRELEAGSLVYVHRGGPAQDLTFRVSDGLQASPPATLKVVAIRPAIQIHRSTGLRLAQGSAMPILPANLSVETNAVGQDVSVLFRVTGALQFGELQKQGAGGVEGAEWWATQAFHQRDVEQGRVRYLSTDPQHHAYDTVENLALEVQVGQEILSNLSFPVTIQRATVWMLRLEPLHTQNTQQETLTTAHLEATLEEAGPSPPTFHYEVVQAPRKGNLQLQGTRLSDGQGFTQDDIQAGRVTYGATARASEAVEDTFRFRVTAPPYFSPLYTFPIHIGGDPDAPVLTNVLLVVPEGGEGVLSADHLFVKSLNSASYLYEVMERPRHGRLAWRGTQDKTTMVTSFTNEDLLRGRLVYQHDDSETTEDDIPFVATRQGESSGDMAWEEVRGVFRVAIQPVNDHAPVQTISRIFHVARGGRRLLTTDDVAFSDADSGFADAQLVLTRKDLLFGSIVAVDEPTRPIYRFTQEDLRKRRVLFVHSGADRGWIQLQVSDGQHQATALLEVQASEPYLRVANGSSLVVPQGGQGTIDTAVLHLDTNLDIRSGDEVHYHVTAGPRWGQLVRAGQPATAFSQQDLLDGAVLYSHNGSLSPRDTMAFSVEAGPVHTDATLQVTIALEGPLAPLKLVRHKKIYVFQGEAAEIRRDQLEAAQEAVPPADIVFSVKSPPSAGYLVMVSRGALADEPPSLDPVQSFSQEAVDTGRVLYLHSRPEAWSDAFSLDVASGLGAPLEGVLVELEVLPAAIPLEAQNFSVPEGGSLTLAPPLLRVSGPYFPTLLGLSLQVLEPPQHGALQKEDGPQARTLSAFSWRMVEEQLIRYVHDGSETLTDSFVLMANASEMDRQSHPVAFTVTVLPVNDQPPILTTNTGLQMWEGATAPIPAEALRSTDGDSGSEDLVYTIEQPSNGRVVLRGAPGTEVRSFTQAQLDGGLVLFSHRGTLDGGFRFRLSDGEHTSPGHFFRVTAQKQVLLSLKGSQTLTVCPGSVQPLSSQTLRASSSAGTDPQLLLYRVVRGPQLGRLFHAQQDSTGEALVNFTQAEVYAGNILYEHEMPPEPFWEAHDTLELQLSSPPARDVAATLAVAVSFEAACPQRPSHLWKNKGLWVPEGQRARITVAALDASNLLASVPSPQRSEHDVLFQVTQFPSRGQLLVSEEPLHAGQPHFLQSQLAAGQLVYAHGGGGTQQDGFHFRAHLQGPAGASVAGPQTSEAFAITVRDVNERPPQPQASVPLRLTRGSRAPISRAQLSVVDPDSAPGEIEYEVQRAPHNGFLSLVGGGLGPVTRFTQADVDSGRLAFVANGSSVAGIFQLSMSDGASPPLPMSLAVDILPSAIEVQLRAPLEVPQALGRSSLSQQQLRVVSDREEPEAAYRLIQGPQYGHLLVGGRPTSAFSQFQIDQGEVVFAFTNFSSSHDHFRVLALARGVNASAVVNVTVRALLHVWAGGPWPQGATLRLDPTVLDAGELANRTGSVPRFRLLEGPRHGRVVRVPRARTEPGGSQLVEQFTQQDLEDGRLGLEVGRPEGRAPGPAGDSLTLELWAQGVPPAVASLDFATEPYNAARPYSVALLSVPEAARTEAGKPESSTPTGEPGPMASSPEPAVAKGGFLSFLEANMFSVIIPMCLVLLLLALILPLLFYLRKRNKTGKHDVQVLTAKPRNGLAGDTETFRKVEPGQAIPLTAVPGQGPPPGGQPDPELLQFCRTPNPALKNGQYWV
With B1 the “EC50 of T cell-mediated killing (LDH release), MV-3 cells, human PBMCs E:T 10:1, 27 h” value was about 0.0117 nM and the “EC50 of T cell-mediated killing (LDH release), WM266-4 cells, human PBMCs E:T 10:1, 26 h” value was 0.0129 nM. For B2, the “EC50 of T cell-mediated killing (LDH release), MV-3 cells, human PBMCs E:T 10:1, 27 h” value was about 0.0822 nM and the “EC50 of T cell-mediated killing (LDH release), WM266-4 cells, human PBMCs E:T 10:1, 26 h” value was 0.0168 nM.

These binders were tested against T1, hu-MCSP(D3 domain)-avi-his (assay: SPR ProteOn XPR36, 25 C; Fab captured via anti-human F(ab')2, MCSP D3 as analyte).
Procedure: Briefly, carboxymethylated dextran biosensor chips (CM5, GE Healthcare) were activated with N-ethyl-N′-(3-dimethylaminopropyl)-carbodiimide hydrochloride (EDC) and N-hydroxysuccinimide (NHS) according to the supplier's instructions. Anti-human F(ab′)2 fragment specific capture antibody was diluted with 10 mM sodium acetate, pH 5.0 at 50 μg/ml before injection at a flow rate of 10 μl/minute to achieve approximately up to 10.000 response units (RU) of coupled capture antibody. Following the injection of the capture antibody, 1 M ethanolamine is injected to block unreacted groups. For kinetics measurements, Fabs from bacterial supernatant or purified Fabs were injected at a flow rate of 10 μl/minute for 300 s and a dissociation of 300 s for capture baseline stabilization. […] The surface of the sensorchip was regenerated by injection of glycine pH 1.5 for 30 s at 90 μl/min followed by injection of NaOH for 20 s at the same flow rate. Association rates (kₒₙ) and dissociation rates (koff) were calculated using a simple one-to-one Langmuir binding model (ProteOn XPR36 Evaluation Software or Scrubber software (BioLogic)) by simultaneously fitting the association and dissociation sensorgrams. The equilibrium dissociation constant (KD) was calculated as the ratio koff/kₒₙ.
B3 gave a Kd of 5 nM. In the case of B4, the Kd is reported as 0.7 nM. With B5 the Kd was 2 nM. Binder B6 has a Kd of 0.6 nM. With B7 the Kd was 0.7 nM. In the case of B8, the Kd is reported as 0.4 nM. In the case of B9, the Kd is reported as 0.3 nM. For B10, the Kd was 0.02 nM.

Source: patent publication US20140242080A1 (Hoffmann-La Roche, published 2014)
